The values below come from PMC4021431, “Identification of glutathione (GSH)-independent glyoxalase III from Schizosaccharomyces pombe” (BMC Evolutionary Biology, 2014).

Changes are numbered by the printed parent chain. Names may count otherwise.

Holding throughout (assay): DNPH colorimetric glyoxalase III assay, A540
Substrate in data set [1]: CC(=O)C=O
The format is biochemical, Schizosaccharomyces pombe. To be noted: GSH-independent, 100 mM Na3PO4 pH 6.8, 45 °C, MG 0.5-3 mM (below Km). The text has this:
DNPH colorimetric glyoxalase III assay, A540 on SpDJ-1

Substrate in data set [2]: CC(=O)C=O
The format is biochemical, Saccharomyces cerevisiae. To be noted: GSH-independent, 100 mM Na3PO4 pH 6.8, 45 °C. From the text: DNPH colorimetric glyoxalase III assay, A540 on ScHsp31

Substrate in data set [3]: CC(=O)C=O
The format is biochemical, Schizosaccharomyces pombe. To be noted: GSH-independent, 100 mM Na3PO4 pH 6.8, 45 °C. From the text: DNPH colorimetric glyoxalase III assay, A540 on Hsp3101

Substrate in data set [4]: CC(=O)C=O
The format is biochemical, Schizosaccharomyces pombe. To be noted: GSH-independent, 100 mM Na3PO4 pH 6.8, 45 °C. The text has this:
DNPH colorimetric glyoxalase III assay, A540 on Hsp3102
This is another data set of the same source.

B1: SpDJ-1 (Schizosaccharomyces pombe 972h-) (protein)
chain: MVKVCLFVADGTDEIEFSAPWGIFKRAEIPIDSVYVGENKDRLVKMSRDVEMYANRSYKEIPSADDFAKQYDIAIIPGGGLGAKTLSTTPFVQQVVKEFYKKPNKWIGMICAGTLTAKTSGLPNKQITGHPSVRGQLEEGGYKYLDQPVVLEENLITSQGPGTAMLFGLKLLEQVASKDKYNAVYKSLSMP
notes: full length (191 aa), C-terminal His6 (pET28a, NcoI/XhoI), E. coli BL21(DE3), Ni-NTA
For B1, in data set [1], the Km was 10800 µM, the kcat is 1.43 s⁻¹ and the specificity constant (kcat/Km) came out at 132 M⁻¹ s⁻¹.

B2: SpDJ-1 (Schizosaccharomyces pombe 972h-; H130A) (protein)
chain: B1 chain with H130A
notes: as for B1
As for B2, in data set [1], the Km was 37300 µM, the kcat was determined as 1.09 s⁻¹ and the kcat/Km is 30 M⁻¹ s⁻¹.

B3: ScHsp31 (Saccharomyces cerevisiae S288C) (protein)
chain: MAPKKVLLALTSYNDVFYSDGAKTGVFVVEALHPFNTFRKEGFEVDFVSETGKFGWDEHSLAKDFLNGQDETDFKNKDSDFNKTLAKIKTPKEVNADDYQIFFASAGHGTLFDYPKAKDLQDIASEIYANGGVVAAVCHGPAIFDGLTDKKTGRPLIEGKSITGFTDVGETILGVDSILKAKNLATVEDVAKKYGAKYLAPVGPWDDYSITDGRLVTGVNPASAHSTAVRSIDALKN
notes: full length (237 aa), C-terminal His6 (pET28a), E. coli BL21(DE3), Ni-NTA
Consider B3, for which, in data set [2], the Km is 1500 µM, the kcat came to 1.25 s⁻¹ and the kcat/Km amounted to 850 M⁻¹ s⁻¹.

B4: Hsp3101 (Schizosaccharomyces pombe 972h-) (protein)
chain: MASEGKVLLVASSYYGPFYPDGMNTGVHFAELLIPYQVFREAGYEVQLTSETGKCKFDDHSIKKSALGEVERDAFDNKDNEFWYALKDIKPADKINYKEFCIMFIAGGHAAMFDLPHATNLQTLAQQIYASNGVLAAVCHGPVMLPFVDDTKSPEGRSVVYGKKVTAFNSTGELVMGVSSALRERNMQDLNSLFREAGAEFVDPPTPMSDFTQVDGRIVTGVNPMSAKSTAEAAIKVSQSLRKT
notes: full length (244 aa), C-terminal His6 (pET28a), E. coli BL21(DE3), Ni-NTA
On to B4, for which, in data set [3], the Km was 1400 µM, the kcat was 0.518 s⁻¹ and the kcat/Km amounted to 383 M⁻¹ s⁻¹.

B5: Hsp3102 (Schizosaccharomyces pombe 972h-) (protein)
chain: MSIAKGKNALLVASSYYGPFYPDGKNTGVHFSELLIPYNVFKKAGFNVQFVSENGSYKFDDHSIEESKLGDFERKVFNDKNDDFWTNLNNMKKASDIVGKDYQLLFVAGGHAAMFDLPKATNLQAVAREVFTNGGVLSAVCHGPVLLANVKNPQSVEGKTVVYHKHVTAFNKAGEEKMGVMDELKKRGMKSLNEIFAEAGATFIDPPNPNVNFTQIDGKIVTGVNPQSAKSTAEAAVSAL
notes: full length (240 aa), C-terminal His tag (pESP3), expressed in S. pombe yAS56, Ni-NTA
With B5, in data set [4], the Km amounted to 2700 µM, the kcat was 0.967 s⁻¹ and the kcat/Km turned out to be 350 M⁻¹ s⁻¹.
